Data published in IntAct's records for PubMed 12925767.

B1: DASH complex subunit DAM1 (Saccharomyces cerevisiae), P53267 (parent)
chain: MSEDKAKLGTTRSATEYRLSIGSAPTSRRSSMGESSSLMKFADQEGLTSSVGEYNENTIQQLLLPKIRELSDSIITLDSNFTRLNFIHESLADLNESLGSLLYGIMSNSWCVEFSQAPHDIQDDLIAIKQLKSLEDEKNNLVMELSNMERGIKRKKDEQGENDLAKASQNKQFNQPLFPSSQVRKYRSYDNRDKRKPSKIGNNLQVENEEDYEDDTSSEASFVLNPTNIGMSKSSQGHVTKTTRLNNNTNSKLRRKSILHTIRNSIASGADLPIENDNVVNLGDLHPNNRISLGSGAARVVNGPVTKNRNSMFSGRAERKPTESRHSVAKKTEKKINTRPPFR

Variants of: B1
Conditions: with med21_yeast SRB7, P47822
Chain of med21_yeast SRB7, P47822 (P47822 whole entry): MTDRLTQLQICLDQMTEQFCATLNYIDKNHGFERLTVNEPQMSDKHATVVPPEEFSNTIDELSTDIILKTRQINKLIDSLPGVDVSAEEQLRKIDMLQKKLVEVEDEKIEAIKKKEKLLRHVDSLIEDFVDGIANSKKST

Variant | effect of a mutation on the interaction
MSEDKAKLGTTRSATEYRLDIGSAPTSRRSSMGESSSLMKFADQEGLTSSVGEYNENTIQQLLLPKIRELSDSIITLDSNFTRLNFIHESLADLNESLGSLLYGIMSNSWCVEFSQAPHDIQDDLIAIKQLKSLEDEKNNLVMELSNMERGIKRKKDEQGENDLAKASQNKQFNQPLFPSSQVRKYRSYDNRDKRKPSKIGNNLQVENEEDYEDDTSSEASFVLNPTNIGMSKSSQGHVTKTTRLNNNTNSKLRRKDILHTIRNDIASGADLPIENDNVVNLGDLHPNNRIDLGSGAARVVNGPVTKNRNSMFSGRAERKPTESRHSVAKKTEKKINTRPPFR [S20D;S257D;S265D;S292D] | causing an interaction

Variants of: B1
Conditions: with nup82_yeast NUP82, P40368
Chain of nup82_yeast NUP82, P40368 (P40368 whole entry): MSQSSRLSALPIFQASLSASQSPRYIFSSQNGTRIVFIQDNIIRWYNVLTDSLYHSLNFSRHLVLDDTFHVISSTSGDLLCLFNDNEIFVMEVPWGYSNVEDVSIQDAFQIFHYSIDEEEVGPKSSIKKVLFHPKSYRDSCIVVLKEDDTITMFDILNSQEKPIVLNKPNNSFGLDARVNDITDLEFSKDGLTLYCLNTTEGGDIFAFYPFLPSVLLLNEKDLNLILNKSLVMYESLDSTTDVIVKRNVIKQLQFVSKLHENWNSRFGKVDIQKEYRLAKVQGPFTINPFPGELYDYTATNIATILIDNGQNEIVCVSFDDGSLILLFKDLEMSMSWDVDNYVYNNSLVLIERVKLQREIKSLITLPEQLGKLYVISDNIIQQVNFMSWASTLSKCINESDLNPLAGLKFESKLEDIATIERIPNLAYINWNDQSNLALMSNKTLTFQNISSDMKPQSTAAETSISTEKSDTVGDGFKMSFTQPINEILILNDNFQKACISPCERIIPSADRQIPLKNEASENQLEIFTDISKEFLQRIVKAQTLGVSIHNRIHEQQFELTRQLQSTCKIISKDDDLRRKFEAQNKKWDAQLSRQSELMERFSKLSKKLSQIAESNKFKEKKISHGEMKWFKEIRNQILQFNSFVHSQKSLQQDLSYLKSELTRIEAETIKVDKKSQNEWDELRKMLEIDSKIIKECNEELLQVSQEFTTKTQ

Variant | effect of a mutation on the interaction
MSEDKAKLGTTRSATEYRLAIGSAPTSRRSSMGESSSLMKFADQEGLTSSVGEYNENTIQQLLLPKIRELSDSIITLDSNFTRLNFIHESLADLNESLGSLLYGIMSNSWCVEFSQAPHDIQDDLIAIKQLKSLEDEKNNLVMELSNMERGIKRKKDEQGENDLAKASQNKQFNQPLFPSSQVRKYRSYDNRDKRKPSKIGNNLQVENEEDYEDDTSSEASFVLNPTNIGMSKSSQGHVTKTTRLNNNTNSKLRRKAILHTIRNAIASGADLPIENDNVVNLGDLHPNNRIALGSGAARVVNGPVTKNRNSMFSGRAERKPTESRHSVAKKTEKKINTRPPFR [S20A;S257A;S265A;S292A] | causing an interaction

Variants of: B1
Conditions: with bmh1_yeast BMH1, P29311
Chain of bmh1_yeast BMH1, P29311 (P29311 whole entry): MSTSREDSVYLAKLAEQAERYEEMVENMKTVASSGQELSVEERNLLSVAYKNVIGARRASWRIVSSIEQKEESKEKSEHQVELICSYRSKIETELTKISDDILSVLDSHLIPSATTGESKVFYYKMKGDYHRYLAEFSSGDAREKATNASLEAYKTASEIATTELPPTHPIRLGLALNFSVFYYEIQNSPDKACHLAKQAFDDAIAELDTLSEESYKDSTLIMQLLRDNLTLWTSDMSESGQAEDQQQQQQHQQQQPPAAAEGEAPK

Variant | effect of a mutation on the interaction
MSEDKAKLGTTRSATEYRLAIGSAPTSRRSSMGESSSLMKFADQEGLTSSVGEYNENTIQQLLLPKIRELSDSIITLDSNFTRLNFIHESLADLNESLGSLLYGIMSNSWCVEFSQAPHDIQDDLIAIKQLKSLEDEKNNLVMELSNMERGIKRKKDEQGENDLAKASQNKQFNQPLFPSSQVRKYRSYDNRDKRKPSKIGNNLQVENEEDYEDDTSSEASFVLNPTNIGMSKSSQGHVTKTTRLNNNTNSKLRRKAILHTIRNAIASGADLPIENDNVVNLGDLHPNNRIALGSGAARVVNGPVTKNRNSMFSGRAERKPTESRHSVAKKTEKKINTRPPFR [S20A;S257A;S265A;S292A] | causing an interaction
